To fix the notation:
B2: Chlamydomonas reinhardtii IFT74(128‐C) (domain or fragment, UniProt Q6RCE1 128-641, looked up)
chain: GVGRQVLDKNYFMNELRQKRMEIAQVTSNMKSDLEALERKQAQYNSMDKRASDLSKEVKILQEALADYNTVLDKVGSQAPVYVIQQEFAALKDRNEQQRKRVDEVLTERLNLESKAKQAESKMSEIQASMDQRLNSMPPSQRNEYTTLVAEQQQLQADSKRFEEVLDELDKALQASEGELARNPFKQRSLQLQEQIRALTEKKYELTEEERQSKRSPEELRADLMAKIKRDNTEVEQMTQQIRELQDQIKKMEERVKSLGGATSGAAAAEEKANREKFEELLAKERDLNNFMDGFPSRKAAKMQEKQQKEDGIVGVLEKMVKMQGIIGSNLPSQKKYKEMQDELEYKKMQLENTQTTQERLKEELTMRRTELEKIDTLEDKIKLELTQLAERQEAMEKEMGEFGSVEDIQRKANAARERMEGLRSVLLKRKDLLRSIVAERGLKFQAKRAQLQDHNLQVQLEKMEAKLKNLSAGVFEMDEFIKAKESETNYRQLASNIAALVDDLNVHVKKAVV

The target of assay [1] is T1, CrIFT172(1–968) (Chlamydomonas reinhardtii, UniProt Q5DM57 1-968).
T1 sequence (looked up): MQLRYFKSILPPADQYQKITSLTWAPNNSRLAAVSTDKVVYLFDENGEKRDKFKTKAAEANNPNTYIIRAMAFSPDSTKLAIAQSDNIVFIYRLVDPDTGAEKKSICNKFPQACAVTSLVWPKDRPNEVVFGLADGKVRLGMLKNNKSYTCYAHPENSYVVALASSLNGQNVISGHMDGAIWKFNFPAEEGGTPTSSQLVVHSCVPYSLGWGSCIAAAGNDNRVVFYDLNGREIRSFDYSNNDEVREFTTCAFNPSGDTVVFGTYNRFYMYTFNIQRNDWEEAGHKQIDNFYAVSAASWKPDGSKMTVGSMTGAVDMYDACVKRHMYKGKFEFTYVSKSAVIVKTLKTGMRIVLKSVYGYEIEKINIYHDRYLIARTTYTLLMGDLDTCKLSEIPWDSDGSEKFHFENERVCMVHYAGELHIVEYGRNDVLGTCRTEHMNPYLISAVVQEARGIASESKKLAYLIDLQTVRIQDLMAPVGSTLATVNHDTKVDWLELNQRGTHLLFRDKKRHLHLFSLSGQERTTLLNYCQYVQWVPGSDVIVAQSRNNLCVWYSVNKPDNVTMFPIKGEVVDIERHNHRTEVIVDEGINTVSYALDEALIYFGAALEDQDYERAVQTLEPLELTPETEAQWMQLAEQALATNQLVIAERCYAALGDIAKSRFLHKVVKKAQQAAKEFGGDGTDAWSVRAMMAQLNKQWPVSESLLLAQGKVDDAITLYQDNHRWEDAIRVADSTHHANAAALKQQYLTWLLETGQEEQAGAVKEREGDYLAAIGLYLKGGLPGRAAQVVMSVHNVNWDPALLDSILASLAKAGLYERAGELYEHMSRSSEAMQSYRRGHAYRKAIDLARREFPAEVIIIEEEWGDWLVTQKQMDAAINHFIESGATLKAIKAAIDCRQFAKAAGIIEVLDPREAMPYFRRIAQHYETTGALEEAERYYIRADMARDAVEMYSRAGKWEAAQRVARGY
Nature of the assay: pull-down.

Assay [2] concerns the target T2, Chlamydomonas reinhardtii IFT81 (Chlamydomonas reinhardtii, UniProt Q68RJ5 1-683).
T2 sequence (looked up): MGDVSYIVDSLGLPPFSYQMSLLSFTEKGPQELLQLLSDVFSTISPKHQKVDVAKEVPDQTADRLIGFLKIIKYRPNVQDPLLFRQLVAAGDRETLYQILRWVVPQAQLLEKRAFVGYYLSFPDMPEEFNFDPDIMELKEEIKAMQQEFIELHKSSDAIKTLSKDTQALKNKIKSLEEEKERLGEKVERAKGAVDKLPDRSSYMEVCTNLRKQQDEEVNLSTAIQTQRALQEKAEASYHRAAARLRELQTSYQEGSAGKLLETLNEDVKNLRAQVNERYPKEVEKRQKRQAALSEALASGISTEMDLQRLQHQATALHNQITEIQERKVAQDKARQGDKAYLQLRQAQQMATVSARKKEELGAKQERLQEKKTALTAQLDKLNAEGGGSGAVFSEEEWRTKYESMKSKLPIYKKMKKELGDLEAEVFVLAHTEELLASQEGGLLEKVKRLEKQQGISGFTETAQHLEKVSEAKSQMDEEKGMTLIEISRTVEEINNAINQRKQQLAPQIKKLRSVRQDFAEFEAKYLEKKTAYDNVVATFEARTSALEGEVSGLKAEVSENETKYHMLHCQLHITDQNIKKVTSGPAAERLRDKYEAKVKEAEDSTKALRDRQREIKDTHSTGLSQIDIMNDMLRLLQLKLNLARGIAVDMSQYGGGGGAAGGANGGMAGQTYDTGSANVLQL
In words: cross-linking.

Assay [3] addresses T3, Chlamydomonas reinhardtii IFT81/74(128‐C) heterodimer (Chlamydomonas reinhardtii, UniProt Q68RJ5 1-683; Q6RCE1 128-641).
T3 sequence (looked up) 1: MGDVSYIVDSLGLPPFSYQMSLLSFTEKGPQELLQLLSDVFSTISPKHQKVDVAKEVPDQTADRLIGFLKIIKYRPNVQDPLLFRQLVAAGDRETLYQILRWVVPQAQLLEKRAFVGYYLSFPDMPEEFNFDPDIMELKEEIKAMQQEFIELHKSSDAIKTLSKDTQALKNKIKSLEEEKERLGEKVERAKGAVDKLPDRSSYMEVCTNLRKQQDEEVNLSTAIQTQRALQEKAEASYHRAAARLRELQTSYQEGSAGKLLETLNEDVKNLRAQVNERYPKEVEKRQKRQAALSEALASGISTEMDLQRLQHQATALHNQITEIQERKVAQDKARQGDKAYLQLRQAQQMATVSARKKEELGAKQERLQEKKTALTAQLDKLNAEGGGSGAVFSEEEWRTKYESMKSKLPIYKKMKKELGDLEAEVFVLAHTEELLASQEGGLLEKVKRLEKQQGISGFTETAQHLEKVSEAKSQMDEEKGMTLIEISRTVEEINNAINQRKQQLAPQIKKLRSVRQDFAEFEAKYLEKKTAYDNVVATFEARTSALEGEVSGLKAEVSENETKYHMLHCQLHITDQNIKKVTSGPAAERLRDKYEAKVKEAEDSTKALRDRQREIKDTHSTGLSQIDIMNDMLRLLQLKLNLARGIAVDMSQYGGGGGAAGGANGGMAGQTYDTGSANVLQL
T3 sequence (looked up) 2: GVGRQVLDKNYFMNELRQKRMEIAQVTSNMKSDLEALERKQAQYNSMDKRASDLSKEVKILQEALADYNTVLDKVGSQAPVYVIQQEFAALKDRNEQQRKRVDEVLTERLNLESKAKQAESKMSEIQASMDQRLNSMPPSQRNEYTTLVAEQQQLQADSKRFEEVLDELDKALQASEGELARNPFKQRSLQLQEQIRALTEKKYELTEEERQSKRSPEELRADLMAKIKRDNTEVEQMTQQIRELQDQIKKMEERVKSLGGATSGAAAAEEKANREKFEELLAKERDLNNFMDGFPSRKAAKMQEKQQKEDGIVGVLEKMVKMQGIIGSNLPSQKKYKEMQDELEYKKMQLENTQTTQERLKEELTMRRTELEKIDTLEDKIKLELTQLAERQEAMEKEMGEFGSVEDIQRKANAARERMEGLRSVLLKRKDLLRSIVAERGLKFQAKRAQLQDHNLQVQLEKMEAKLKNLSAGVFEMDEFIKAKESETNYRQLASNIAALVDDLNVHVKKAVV
In words: cross-linking.

Assay [4] has as its target B2. Nature of the assay: cross-linking.

B1: GST‐tagged CrIFT57(1–234) (domain or fragment, Chlamydomonas reinhardtii, UniProt Q2XQY7 1-234, looked up)
chain: MSSKRGGRSSLAKAPEEAVNGEAFAPEASPPPPGDDGDAGGEDGGAPAPPPPPATKGGPVAVGRSLEIQTTPDVCMEMLADKLKLLNYEADFCRKKKPYRKPLSRLYFAVPLANSSEQFFYFTSLATWLLGLAGVELPAPKEFDDPNLTCQNILGAVKKLGFAPPSYHPTKLTVGNGKEVVGVLDGLVDFVLERRHHKYSRPAYGNDGQPEEGVQLDDEAEAAAMEGADELAMP
On to B1, for which the binding result in assay [1] is recorded as “binds”.

Regarding B2, the binding result in assay [2] is “binds”.

B3: Chlamydomonas reinhardtii IFT25(1–136) (domain or fragment, UniProt B8LIX8 1-136, looked up)
chain: MKDYAREENGGLVVMASCSDERFPPENMLDGKDNTFWVTTGMFPQEFVLRLESCIRVSKITTLSLNVRKLAVEKCDQDKPDQFEKVFEVELANRGDRLQTEVHQVNIRAKYLKFILLQGHGEFATVNRVSVVGGDD
As to B3, the binding result in assay [3] is “binds”.

B4: Chlamydomonas reinhardtii IFT27 (natural protein)
chain: MVKKEVKPIDITATLRCKVAVVGEATVGKSALISMFTSKGSKFLKDYAMTSGVEVVVAPVTIPDTTVSVELFLLDTAGSDLYKEQISQYWNGVYYAILVFDVSSMESFESCKAWFELLKSARPDRERPLRAVLVANKTDLPPQRHQVRLDMAQDWATTNTLDFFDVSANPPGKDADAPFLSIATTFYRNYEDKVAAFQDACRNY
Consider B4, for which, in assay [3], the binding result is listed as “binds”.

B5: Chlamydomonas reinhardtii IFT46(188–319) (domain or fragment, UniProt A2T2X4 188-319, looked up)
chain: QLRQLSKEAPGAKADMVGRLEHTDENKAKKIQQWIASINDIHKAKPAATVNYSKRMPEIEALMQEWPPEVETFLKTMHMPSGDVELDIKTYARLVCTLLDIPVYDDPVESLHVLFTLYLEFKNNPIFRQHME
Turning to B5, the binding result in assay [2] and in assay [4] was “binds” throughout.

For the origin of these results see paper PMC9753473 (The EMBO Journal, 2022).
